Key:
[1] = system: lymphatic endothelial cells; test: BrdU proliferation assay, lymphatic endothelial cells; format: cell-based; conditions: 2 ug/ml Ang2 with 10 ug/ml antibody; 3 days
Protocol: The measurement assay of the proliferation of vascular and lymphatic endothelial cells was conducted using a BrdU assay kit (Roche) Cell. Vascular endothelial cells of P3˜P8 (HUVEC, ATCC) or lymphatic endothelial cells (Lonza) were placed in a collagen-coated 96-well plate (BD Bioscience) at 3000˜5000 cells/well and cultured in EGM-2 media (Lonza) for 16˜24 hours. A mixture of 2 ug/ml of Ang2 (R&D systems) and 10 ug/ml of antibody 10D6 in 2% EBM media was added to the 96-well plate washed with PBS, which was then cultured for 3 days.
For efficiency comparison, an anti-Ang2 antibody (MEDI: Medlmmune Co.) was used. For a BrdU assay, 10 ul of BrdU solution diluted at 1:1,000 was added to each well of the plate to label the cells. The cells were cultured for 1 hour and after the removal of the culture solution, 100 ul of Fixation/Denaturation solution (Roche) was added to each well and then, removed after 30-min wait. An anti-BrdU antibody (Roche) conjugated with peroxidase was diluted in a dilution buffer (Roche) at 1:100, added to each well to react for 1 hour and then, washed four times using a washing buffer (Roche). 100 ul of a TMB substrate was added thereto to react and then, absorption was measured at 450 nm using a Microplate reader (Perkin Elmer).

[2] = target: T1, Ang2:Tie2 receptor (Homo sapiens, UniProt O15123); test: ELISA for formation of 10D6-Ang2-Tie2 complex; format: binding; conditions: Tie2-Fc coated; 0.25 ug/ml Ang2, 2 ug/ml antibody
T1 construct: purchased R&D systems (Tie2-Fc)
Protocol: A 96-well MaxiSorp™ flat-bottom plate (Nunc) was coated with 4 ug/ml of Tie2-Fc (R&D systems) or BSA (Sigma). Then, the plate was washed five times with 0.05% (v/v) Tween-20-containing PBS (Phosphate Buffer Saline) and blocked with 1% (v/v) BSA (Bovine serum albumin; Sigma)-containing PBS at a room temperature for 2 hours. 0.25ug/ml of Ang2 and 2ug/ml of antibody 10D6 were added to each well of the plate, which was allowed to react at a room temperature for 2 hours and then washed five times with PBST. After that, an anti-mouse IgG antibody (Sigma) conjugated with HRP diluted in 1% (v/v) BSA-containing PBS at a ratio of 1:5,000 (v/v) was added in an amount of 100 ul to each well to react at a room temperature for 1 hour and then, the plate was washed five times with PBST. Lastly, 100 ul (microliter) of TMB substrate (Cell Signaling) was added to each well of the plate to induce color development for 3 min. and then, the reaction was ceased by the addition of 100 ul of Stop solution (Cell Signaling) and OD450 values were measured on a plate reader (Molecular Devices).

[3] = system: Tie2 and Akt; test: In vivo phosphorylation of Tie2 and Akt in mouse lung tissue; conditions: C57BL6 mouse; 5 mg/kg antibody alone or with 20 ug Ang2, tail vein; 1 hour
Protocol: In addition, the phosphorylation of Tie2 receptor and a protein (Akt) which participates in downstream signaling of Tie2 by treating anti-Ang2 antibody was measured in animal model (in vivo). More particularly, 5 mg/kg of antibody was injected alone or together with 20 ug of Ang2 into tail vein of 7-8 week old C57BL6 mouse, and 1 hour after, lung tissue was removed. The obtained lung tissue was subjected to homogenization lysis using lysis buffer (Roche) and FastPrep kit (MP biomedicals). Activities of Tie2 and Akt in the obtained tissue lysate were measured by the above-described method.

[4] = system: human colorectal cancer cell line Colo205; test: Colo205 colorectal cancer xenograft tumor growth; format: in vivo, mouse; conditions: BALB/c nude mice; 10 mg/kg intraperitoneal twice a week
Protocol: To see the tumor growth inhibitory effects of Ang2 antibody, a colorectal cancer xenograft model using a human colorectal cancer cell line Colo205 (ATCC) was employed.
The Colo205 cell line was cultured using 10% FBS (Gibco)-supplemented RPMI-1640 (Gibco) media. 5×10^5 of Colo205 cell line were re-suspended in 100 ul of serum-free media and then subcutaneously injected into anesthetic 4˜5-week-old BALB/c nude mice (Shanghai SLAC Laboratory Animal Co. Ltd.) anesthetized with 1-2% isoflurane. When the size of tumors reached 100˜200 mm^3, anti-Ang2 antibody (10D6) was injected at the concentration of 10 mg/kg via an intraperitoneal injection twice a week and the size of the tumors was measured.
The size of tumor (V) was calculated using the following formula: V=(length×width^2)/2

[5] = system: ICAM-1; test: LPS-induced mRNA expression of ICAM-1 in HUVEC (qPCR); format: cell-based, human; conditions: 100 ng/ml LPS 5 hours, 0.2 ug/ml Ang1 or 0.1 ug/ml Ang2 + 0.5 ug/ml antibody
Protocol: To see anti-inflammatory effects by antibody 10D6, HUVEC (ATCC) cells (4×10^5) were treated with Ang2 alone or Ang2 together with antibody 10D6, and a group in which Ang1 and Ang2 (R&D systems) and Regeneron Co. antibody (RG antibody) were co-treated was included as a control group. HUVEC cells were treated with 0.2 ug/ml of Ang1, 0.1 ug/ml of Ang2, or 0.1 ug/ml of Ang2 and 0.5 ug/ml of antibody, respectively and after 30-min. pre-incubation, they were treated with 100 ng/ml of LPS (Sigma) to induce inflammatory response and incubated for 5 hours.
The degree of the inflammatory response was identified by measuring the mRNA expression degree of an inflammatory adhesion substance (ICAM-1, E-selectin). The cells were washed using PBS, RNA was extracted using RNeasy Mini kit (Qiagen), and among them, 2 ug of RNA was synthesized into cDNA using Transcriptor First Strand cDNA synthesis kit (Roche). qPCR reaction was performed using RT2 SYBR™ Green Mastermix (Qiagen) and LightCycler™ 480 Real-Time PCR System (Roche). As an internal control for calibrating the amount of RNA in a sample, HPRT1 was used, and qPCR complied with the following procedures with regard to all the primers.
Step 1: 95° C., 10 min; Step 2 (45 cycles): Step 2-1: 95° C., 15 sec; Step 2-2: 60° C., 1 min; Step 3: 65° C., 15 sec; Step 4: 95° C., continuous (every 20° C.); Step 6: 40° C., 10 sec.

T1 sequence (O15123 19-496): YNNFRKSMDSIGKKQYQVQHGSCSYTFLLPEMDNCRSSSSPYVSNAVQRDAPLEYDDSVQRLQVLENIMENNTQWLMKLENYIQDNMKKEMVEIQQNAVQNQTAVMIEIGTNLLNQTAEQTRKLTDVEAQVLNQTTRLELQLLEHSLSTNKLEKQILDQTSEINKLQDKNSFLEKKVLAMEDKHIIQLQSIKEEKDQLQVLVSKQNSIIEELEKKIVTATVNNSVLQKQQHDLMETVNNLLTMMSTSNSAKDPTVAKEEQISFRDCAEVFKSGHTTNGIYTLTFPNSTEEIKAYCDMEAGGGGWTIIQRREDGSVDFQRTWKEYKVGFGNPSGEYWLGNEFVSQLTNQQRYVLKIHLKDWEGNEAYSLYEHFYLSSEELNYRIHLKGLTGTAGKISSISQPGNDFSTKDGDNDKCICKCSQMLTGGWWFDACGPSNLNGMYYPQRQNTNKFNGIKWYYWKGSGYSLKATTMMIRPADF
T1 sequence (Q02763 23-745 partner limits assumed): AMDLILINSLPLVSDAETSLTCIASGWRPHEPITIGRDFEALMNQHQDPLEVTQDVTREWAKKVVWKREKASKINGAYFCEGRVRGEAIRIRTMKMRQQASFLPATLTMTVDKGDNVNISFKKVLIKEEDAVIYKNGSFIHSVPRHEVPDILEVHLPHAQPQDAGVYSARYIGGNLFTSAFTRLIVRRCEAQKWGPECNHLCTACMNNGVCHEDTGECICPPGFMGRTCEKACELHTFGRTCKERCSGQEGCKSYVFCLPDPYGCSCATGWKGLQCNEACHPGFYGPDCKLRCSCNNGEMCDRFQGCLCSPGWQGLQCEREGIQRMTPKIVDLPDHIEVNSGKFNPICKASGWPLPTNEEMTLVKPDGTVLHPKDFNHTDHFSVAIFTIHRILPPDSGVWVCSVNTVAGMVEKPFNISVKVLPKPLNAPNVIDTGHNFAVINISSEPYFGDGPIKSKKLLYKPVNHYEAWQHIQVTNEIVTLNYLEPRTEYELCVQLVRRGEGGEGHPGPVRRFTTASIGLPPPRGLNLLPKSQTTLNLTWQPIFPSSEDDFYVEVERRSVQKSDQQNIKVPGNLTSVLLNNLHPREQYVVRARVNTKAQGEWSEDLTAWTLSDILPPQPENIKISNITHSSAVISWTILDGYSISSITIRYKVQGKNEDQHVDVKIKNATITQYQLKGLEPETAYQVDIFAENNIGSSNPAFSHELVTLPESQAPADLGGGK

B1: 10D6: mouse anti-Ang2 monoclonal antibody from hybridoma KCLRF-BP-00295; heavy chain variable region SEQ ID NO: 7, light chain variable region SEQ ID NO: 9 (antibody, V domains shown)
VH: DVQLQESGPGLVKPSQSLSLTCTVTGYSITSDYAWNWIRQFPGNKLEWMGYINYSGNTDYNPSLKSRSSITRDTSKNQFFLQLNSVTTGDTATYYCARGNFEGAMDYWGQGTSVTVSS
VL: SIVMTQTPKFLLVSAGDRVTITCKASQSVSNDVAWYQQKPGQSPKLLIYYASNRYPGVPDRFTGSGYGTDFTFTISTVQAEDLAVYFCQQDYSSPWTFGGGTKLEIK
modifications: Synthetic (Heavy chain variable region of an anti-Ang2 antibody); Synthetic (Light chain variable region of anti-Ang2 antibody)
Q: For B1, which “growth of lymphatic endothelial cells (BrdU)” value [1] is on record?
A: increased

Q: What about the “formation of complex with Ang2 bound to Tie2” value [2] of the same molecule?
A: formed a complex

Q: And the “phosphorylation of Tie2 and Akt in lung tissue in vivo” value [3]?
A: considerable effect of phosphorylating Tie2 and a protein, Akt

Q: And the “tumor growth in Colo205 xenograft” value [4]?
A: inhibited the growth of colorectal cancer

Q: What about the “expression of ICAM-1 induced by LPS” value [5] of the same molecule?
A: remarkably suppressed
